This note sets out measurements from patent US4770996A, “Identification of individuals predisposed toward alcohol abuse” (priority 1986, dated 1988).

Substrate in this series: NCCc1ccccc1
The series is described as follows: Platelet monoamine oxidase (MAO) assay, deamination of 14C-PEA. As to conditions: other: platelets of control subjects; varying PEA; mean±SEM, n=6; 37.0 °C. The format is biochemical, human. On the procedure:
Platelets were prepared from whole blood (20 ml) which was obtained by venipuncture from healthy volunteers and alcoholic subjects. After standing at room temperature for approximately three to four hours in citrate-phosphate-dextrose solution, each blood sample was centrifuged at 180×G for two minutes. The platelet-rich plasma (PRP) was carefully removed and platelet count was determined from aliquots (20 ul) of the PRP with a Coulter S-plus Thrombocounter. The PRP was centrifuged at 16,000 g for ten minutes. The pellet was resuspended in 50 ml of cold 50 mM Tris-HCl, pH 7.5, containing […] NaCl and 20 mM ethylene diamine tetraacetic acid (EDTA). The centrifugation was repeated twice, and the final pellet was resuspended in 1 ml of cold 5 mM Tris-HCl, pH 7.5, containing 5 mM EDTA. Suspensions were rapidly frozen at -70° C., and samples were stored at -70° C. for no longer than four weeks prior to assay.
To measure the deamination of ^14 C-PEA, assay mixtures (total volume, 0.3 ml) contained approximately 15 ug of platelet protein. Reactions were carried out in 0.1 M sodium phosphate, pH 7.4, at 37° C. […] Two additional ml of water and 20 ml of scintillation fluid were added to each vial, and radioactivity was determined in a liquid scintillation spectrometer. […]

As usually defined, the Km is the substrate concentration at which the rate is half of its maximum.

B1: platelet monoamine oxidase (MAO) (Homo sapiens) (protein)
chain: MSNKCDVVVVGGGISGMAAAKLLHDSGLNVVVLEARDRVGGRTYTLRNQKVKYVDLGGSYVGPTQNRILRLAKELGLETYKVNEVERLIHHVKGKSYPFRGPFPPVWNPITYLDHNNFWRTMDDMGREIPSDAPWKAPLAEEWDNMTMKELLDKLCWTESAKQLATLFVNLCVTAETHEVSALWFLWYVKQCGGTTRIISTTNGGQERKFVGGSGQVSERIMDLLGDRVKLERPVIYIDQTRENVLVETLNHEMYEAKYVISAIPPTLGMKIHFNPPLPMMRNQMITRVPLGSVIKCIVYYKEPFWRKKDYCGTMIIDGEEAPVAYTLDDTKPEGNYAAIMGFILAHKARKLARLTKEERLKKLCELYAKVLGSLEALEPVHYEEKNWCEEQYSGGCYTTYFPPGILTQYGRVLRQPVDRIYFAGTETATHWSGYMEGAVEAGERAAREILHAMGKIPEDEIWQSEPESVDVPAQPITTTFLERHLPSVPGLLRLIGLTTIFSATALGFLAHKRGLLVRV
notes: contained approximately 15 ug of platelet protein; from tissue; host or cells: platelets (membranes) from whole blood of volunteers and alcoholic subjects
On to B1, for which the Km was determined as 1.4 ± 0.2 µM and the Vmax is 508±37 pmole/mg protein/minute.
